Patent publication US20230054718A1 (HIFIBIO HK, published 2023)
Positions count from the first letter of the chain named. Where “and” joins values, the source holds several entries; their conditions need not be identical. Equal values may be shown once. Each block holds one binder with its values, some of them ahead of it.

How the values were obtained:
[1] = biological target: T1, Gal9 (Galectin-9) as used in Examples 3 to 5 (Homo sapiens (Human), UniProt O00182 1-323); experiment: Tim3 blocking Assay: binding (%) of Gal9 to TIM3 over antibody concentration; R2 printed 0,9956; no unit in the table, nM from the axis 'Antibody [nM]'
[2] = biological target: T2, recombinant human Galectin-9 (human, UniProt O00182-2 1-323, limits assumed); experiment: binding to recombinant human Gal-9, OD read-out over antibody concentration (nM); table under the curves
T2 construct: also called hGal9M; human Gal9

[3] = biological target: T1, Gal9 (Galectin-9) as used in Examples 3 …; experiment: CD44 blocking Assay: binding (%) of Gal9 to CD44 over antibody concentration; R2 printed 0,9790; no unit in the table, nM from the axis 'Antibody [nM]'
[4] = biological target: T3, recombinant mouse Galectin-9 (mouse, UniProt O08573-2 1-322, limits assumed); experiment: binding to recombinant mouse Gal-9, OD read-out over antibody concentration (nM); table under the curves
T3 construct: also called mGal9M; mouse Gal9

[5] = biological target: T1, Gal9 (Galectin-9) as used in Examples 3 …; experiment: Tim3 blocking Assay: binding (%) of Gal9 to TIM3 over antibody concentration; R2 printed 0,9756; no unit in the table, nM from the axis 'Antibody [nM]'
[6] = biological target: T2, recombinant human Galectin-9; experiment: BLI (Octet)
Experimental: (§1) Antibody binding affinity was measured using the commercially available Octet system from ForteBio (Creative Biolabs). According to the Creative Biolabs description, the Octet platform is based on bio-layer interferometry (BLI) technology that utilizes a whole set of system including instruments, biosensors, reagents and assay kits to support the evaluation of biomolecular interactions in 96- or 384-well microplates. Octet system uses Dip-and-Read assay mode to avoid the need of microfluidics, and enables the real-time, label-free analysis of affinity as well as kinetics. There are three biosensor-based assay orientations that can be used to explore antibody interaction: tandem blocking, premix blocking and classical sandwich. Compared to Biacore, Octet's dip-and-read assay allows longer analyte-binding steps and […] the rebinding of analyte to the ligand-coated sensors. Meanwhile, faster association time consumes less sample, which saves your precious proteins.

[7] = biological target: T3, recombinant mouse Galectin-9; experiment: BLI (Octet)
Experimental: as §1

[8] = biological target: T1, Gal9 (Galectin-9) as used in Examples 3 …; experiment: Tim3 blocking Assay: binding (%) of Gal9 to TIM3 over antibody concentration; R2 printed 0,9960; no unit in the table, nM from the axis 'Antibody [nM]'
[9] = biological target: T1, Gal9 (Galectin-9) as used in Examples 3 …; experiment: CD44 blocking Assay: binding (%) of Gal9 to CD44 over antibody concentration; ambiguous fit marked '~', R2 printed 0,9720; no unit in the table, nM from the axis 'Antibody [nM]'
[10] = biological target: T1, Gal9 (Galectin-9) as used in Examples 3 …; experiment: Tim3 blocking Assay: binding (%) of Gal9 to TIM3 over antibody concentration; ambiguous fit marked '~', R2 printed 0,9819; no unit in the table, nM from the axis 'Antibody [nM]'
[11] = biological target: T1, Gal9 (Galectin-9) as used in Examples 3 …; experiment: CD44 blocking Assay: binding (%) of Gal9 to CD44 over antibody concentration; ambiguous fit marked '~', R2 printed 0,9183; no unit in the table, nM from the axis 'Antibody [nM]'
[12] = biological target: T1, Gal9 (Galectin-9) as used in Examples 3 …; experiment: Tim3 blocking Assay: binding (%) of Gal9 to TIM3 over antibody concentration; ambiguous fit marked '~', R2 printed 0,8826; no unit in the table, nM from the axis 'Antibody [nM]'
[13] = biological target: T1, Gal9 (Galectin-9) as used in Examples 3 …; experiment: CD44 blocking Assay: binding (%) of Gal9 to CD44 over antibody concentration; very poor fit, R2 printed 0,07344; no unit in the table, nM from the axis 'Antibody [nM]'
[14] = biological target: T1, Gal9 (Galectin-9) as used in Examples 3 …; experiment: CD44 blocking Assay: binding (%) of Gal9 to CD44 over antibody concentration; ambiguous fit marked '~', R2 printed 0,7386; no unit in the table, nM from the axis 'Antibody [nM]'
[15] = biological target: T1, Gal9 (Galectin-9) as used in Examples 3 …; experiment: Tim3 blocking Assay: binding (%) of Gal9 to TIM3 over antibody concentration; ambiguous fit marked '~', R2 printed 0,8078; no unit in the table, nM from the axis 'Antibody [nM]'

T1 sequence (O00182 other isoform, or with tags, fused parts or gaps limits assumed): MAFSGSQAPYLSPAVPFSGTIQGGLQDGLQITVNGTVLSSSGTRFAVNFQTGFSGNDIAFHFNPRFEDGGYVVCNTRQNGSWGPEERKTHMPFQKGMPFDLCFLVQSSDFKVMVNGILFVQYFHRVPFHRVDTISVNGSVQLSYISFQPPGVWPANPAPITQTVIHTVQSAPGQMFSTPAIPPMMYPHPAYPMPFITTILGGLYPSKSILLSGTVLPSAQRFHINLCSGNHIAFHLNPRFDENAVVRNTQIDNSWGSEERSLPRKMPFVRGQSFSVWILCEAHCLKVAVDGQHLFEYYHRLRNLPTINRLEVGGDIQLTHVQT
T2 sequence (O00182 other isoform, or with tags, fused parts or gaps limits assumed): as above
T3 sequence (O08573 other isoform, or with tags, fused parts or gaps limits assumed): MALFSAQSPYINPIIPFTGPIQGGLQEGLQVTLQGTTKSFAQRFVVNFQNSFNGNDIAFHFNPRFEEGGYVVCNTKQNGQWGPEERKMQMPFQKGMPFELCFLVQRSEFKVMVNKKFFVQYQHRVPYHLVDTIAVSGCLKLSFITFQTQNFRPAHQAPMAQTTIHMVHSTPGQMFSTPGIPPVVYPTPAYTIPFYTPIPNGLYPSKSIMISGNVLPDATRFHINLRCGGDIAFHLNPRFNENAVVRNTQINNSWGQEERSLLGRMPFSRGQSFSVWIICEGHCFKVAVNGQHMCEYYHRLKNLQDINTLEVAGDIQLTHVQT

B1: HFB9-2hz14-hG1AA (antibody, human IgG1, V domains shown)
VH: EVQLVQSGAEVKKPGESLKISCKGSGYTFTEYTIHWVRQMPGKGLEWMGWFYPGSGSTEYSPSFQGQVTISADKSISTAYLQWSSLKASDTAMYYCERHGGYDGFDYWGQGTTVTVSS
VL: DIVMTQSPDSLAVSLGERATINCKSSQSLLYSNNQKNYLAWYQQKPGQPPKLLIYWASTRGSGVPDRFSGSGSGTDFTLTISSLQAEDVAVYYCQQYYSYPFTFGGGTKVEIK
notes: Humanized variant of HFB9-2; also called 2h14
IC50 [1]: 37.1 nM | EC50 [2]: 0.144 nM | IC50 [3]: 48.7 nM

B2: HFB9-2hz13-hG1AA (antibody, human IgG1, V domains shown)
VH: QVQLVQSGAEVKKPGASVKVSCKASGYTFTEYTIHWVRQAPGQGLEWMGWFYPGSGSTEYAQKFQGRVTMTADTSTSTVYMELSSLRSEDTAVYYCERHGGYDGFDYWGQGTTVTVSS
VL: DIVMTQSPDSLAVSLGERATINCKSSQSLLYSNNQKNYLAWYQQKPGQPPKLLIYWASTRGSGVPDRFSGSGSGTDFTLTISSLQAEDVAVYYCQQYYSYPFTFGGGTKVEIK
notes: Humanized variant of HFB9-2
EC50 [4]: 0.496 nM | IC50 [5]: 51.4 nM | EC50 [2]: 0.128 nM

B4: HFB9-2hz12-hG1AA (antibody, V domains shown)
VH: B2 VH with A16S, T58A, M70I, T74E, V79A
VL: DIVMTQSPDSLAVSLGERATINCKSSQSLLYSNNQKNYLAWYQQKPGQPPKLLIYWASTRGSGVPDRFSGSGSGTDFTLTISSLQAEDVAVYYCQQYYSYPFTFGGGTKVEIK
notes: humanized variant of HFB9-2
EC50 [2]: 0.57 nM

B5: HFB9-1hz2-hG1AA (antibody, human IgG1, V domains shown)
VH: QVQLVQSGAEVKKPGSSVKVSCKASGYTFTDYTIHWVRQAPGQGLEWMGWFYPGSHSIKYAQKFQGRVTITADKSTSTAYMELSSLRSEDTAVYFCTRHGGYDGFDYWGQGTLVTVSS
VL: DIVMTQSPDSLAVSLGERATINCKSSQSLFYSTNQKNYLAWYQQKPGQPPKLLIYWASTRESGVPDRFSGSGSGTDFTLTISSLQAEDVAVYYCQQYYYFPYTFGQGTKLEIK
notes: Humanized variant of HFB9-1
IC50 [10]: ~59.8 nM | EC50 [4]: 0.828 nM | IC50 [11]: ~63.1 nM | EC50 [2]: 0.15 nM

B8: HFB9-1hz1-hG1AA (antibody, human IgG1, V domains shown)
VH: B5 VH with S16A, I70M, K74T, T76I, S85R, E89D
VL: B5 VL
notes: Humanized variant of HFB9-1
IC50 [14]: ~255 nM | IC50 [15]: ~52.1 nM | EC50 [2]: 0.153 nM

The remaining binders from weak to strong by EC50 [2], led by results:

EC50 [2]: 1.84 nM
B6: HFB9-1hz4-hG1AA (antibody, V domains shown)
VH: B5 VH with F95Y, T97A
VL: B5 VL
notes: humanized variant of HFB9-1

EC50 [4]: 0.98 nM | IC50 [12]: ~183 nM | IC50 [13]: 0.0616 nM | EC50 [2]: 0.142 nM
B7: HFB9-1hz3-hG1AA (antibody, human IgG1, V domains shown)
VH: B5 VH with F95Y
VL: B5 VL
notes: Humanized variant of HFB9-1

EC50 [4]: 0.533 nM | Kd [6]: 4.84 nM and 1.96 nM | koff [6]: 0.000352 s⁻¹ and 0.000179 s⁻¹ | kon [6]: 72800 M⁻¹ s⁻¹ and 91400 M⁻¹ s⁻¹ | koff [7]: 0.000462 s⁻¹ and 0.000606 s⁻¹ | kon [7]: 402000 M⁻¹ s⁻¹ and 166000 M⁻¹ s⁻¹ | IC50 [8]: 25.3 nM | IC50 [9]: ~39.6 nM | EC50 [2]: 0.117 nM
B3: HFB9-2hz11-hG1AA (antibody, IgG1, V domains shown)
VH: B2 VH with T76I, V79A, S85R, E89D, Y95F
VL: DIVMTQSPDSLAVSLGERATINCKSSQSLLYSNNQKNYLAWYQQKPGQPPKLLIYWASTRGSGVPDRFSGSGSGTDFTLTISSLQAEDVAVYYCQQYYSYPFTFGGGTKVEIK
notes: Humanized variant of HFB9-2; also called HFB9-2hz11-hG1AA MF20191024
